Test results: paper PMC4873334 (Neuron, 2016)

Key:
[1] = biological target: Pcdhα7 EC1-5 (Mus musculus) (UniProt Q91Y13); conditions: cited from earlier work
AUC = biological target: the molecule itself; experiment: AUC

Sequence of Pcdhα7 EC1-5 (Q91Y13 whole entry, looked up): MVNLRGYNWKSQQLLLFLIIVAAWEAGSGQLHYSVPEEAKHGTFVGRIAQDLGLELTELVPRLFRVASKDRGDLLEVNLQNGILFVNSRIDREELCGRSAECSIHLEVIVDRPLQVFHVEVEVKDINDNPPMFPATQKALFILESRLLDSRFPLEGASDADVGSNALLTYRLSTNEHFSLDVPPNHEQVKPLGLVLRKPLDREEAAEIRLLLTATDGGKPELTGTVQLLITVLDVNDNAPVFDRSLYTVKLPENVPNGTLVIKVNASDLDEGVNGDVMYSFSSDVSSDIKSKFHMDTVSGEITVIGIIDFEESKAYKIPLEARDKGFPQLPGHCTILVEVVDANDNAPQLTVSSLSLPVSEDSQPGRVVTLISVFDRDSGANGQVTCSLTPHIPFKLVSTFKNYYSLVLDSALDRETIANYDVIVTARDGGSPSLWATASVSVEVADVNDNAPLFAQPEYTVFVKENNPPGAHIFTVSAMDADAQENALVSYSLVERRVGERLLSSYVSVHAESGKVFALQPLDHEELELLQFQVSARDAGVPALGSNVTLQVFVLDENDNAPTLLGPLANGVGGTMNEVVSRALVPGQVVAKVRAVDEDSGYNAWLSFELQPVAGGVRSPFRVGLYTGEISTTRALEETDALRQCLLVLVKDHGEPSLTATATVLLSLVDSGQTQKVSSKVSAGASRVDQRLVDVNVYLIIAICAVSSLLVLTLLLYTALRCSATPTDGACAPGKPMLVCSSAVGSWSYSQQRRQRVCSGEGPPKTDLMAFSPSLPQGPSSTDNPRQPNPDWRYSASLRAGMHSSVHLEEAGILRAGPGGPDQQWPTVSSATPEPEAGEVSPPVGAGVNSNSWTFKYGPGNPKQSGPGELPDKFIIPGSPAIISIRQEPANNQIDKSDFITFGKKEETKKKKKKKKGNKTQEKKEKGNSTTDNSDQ

Row | Molecule | Kd [1] | Kd (AUC) | stoichiometry N (AUC)
1 | Pcdhα7 EC1-5 (from UniProt Q91Y13) | 2.91 µM | – | –
2 | Pcdh β6 EC1–4 (mouse clustered protocadherin β6, extracellular cadherin domains 1–4) (domain or fragment, N- and O-linked glycans; O-mannose at positions 194 and 196 (α7 numbering) of EC2) EAIRYSIPEETESGYLVAHLAKDLGFRVGELATRRARIHHRGNKELLQLDVETGNLLLKEKPDREALCGATEPCVLHFQIILENPVQFFQTELQLTDINDHSPEFPDTEMLLKIQESTQPATVFLLKAAQDSDIGSNAVQNYTVSPNLHFHVVTLSRSDGRKYPELVLDRALDREEQPELTLILTALDGGAPPKSGTTTVRIEVVDINDNAPEFVQSLYSVEVPENSPLDALVVTVSARDLDAGIHGNVAYSLFQGGGGPQPFVIDEITGEIRLKGALDFEATSYYTMEIVATDSGGLSGKCTVAIQVLDVNDNAPKLTISSLTSSIPENAPEAVVAVFSVSDPDSGDNGRMVCSIQNELPFLLKPTFENYYTLAAEGPLDREIREEYNITIIVSDLGTPRLTTQHTITVQVVDIND | – | 16.3 ± 2.08 µM | 2
3 | Pcdh β8 EC1–4 (mouse clustered protocadherin β8, extracellular cadherin domains 1–4) (domain or fragment, N- and O-linked glycans; O-mannose at positions 194 and 196 (α7 numbering) of EC2 and on T199) EAISYSMPEETESGYLVANLAQDLGLRVGELTTRGARIHHNGNKELLQLDAERGNLLLKEKPDREALCGATEPCVLHFQIILENPVQFFQTDLQFTDINDHFPEFPDTEMLLKIQEIAQPGTVFPLKAAQDPDIGSNAVQNYTVSPNLHFHVVTLSRSDDRKYPELVLDRALDREEQPELTLILTALDGGAPPKSGTTTVRIEVVDINDNAPQFLQSLYAVEVPENSPLNALVVTVSARDLDAGIHGNVAYSLFQGGGGPQPFVIDEITGEIRLKGALDFEATSYYTMEIVATDSGGLSGKCTVAIQVLDVNDNAPKLTISSLTSSIPENAPEAVVAVFSVSDPDSGDNGRMVCSIQNGLPFLLKPTFKNFYTLVTERPLDRESNAEYNITITVSDLGTPRLTTQHTITVQVSDINDN | – | 24 ± 0.43 µM | 2
4 | Pcdh α7 EC1–5 (mouse clustered protocadherin α7, extracellular cadherin domains 1–5) (domain or fragment, N- and O-linked glycans; O-mannose at positions 194 and 196 (EC2), T409 (EC4) and S449 (EC5)) QLHYSVPEEAKHGTFVGRIAQDLGLELTELVPRLFRVASKDRGDLLEVNLQNGILFVNSRIDREELCGRSAECSIHLEVIVDRPLQVFHVEVEVKDINDNPPMFPATQKALFILESRLLDSRFPLEGASDADVGSNALLTYRLSTNEHFSLDVPPNHEQVKPLGLVLRKPLDREEAAEIRLLLTATDGGKPELTGTVQLLITVLDVNDNAPVFDRSLYTVKLPENVPNGTLVIKVNASDLDEGVNGDVMYSFSSDVSSDIKSKFHMDTVSGEITVIGIIDFEESKAYKIPLEARDKGFPQLPGHCTILVEVVDANDNAPQLTVSSLSLPVSEDSQPGRVVTLISVFDRDSGANGQVTCSLTPHIPFKLVSTFKNYYSLVLDSALDRETIANYDVIVTARDGGSPSLWATASVSVEVADVNDNAPLFAQPEYTVFVKENNPPGAHIFTVSAMDADAQENALVSYSLVERRVGERLLSSYVSVHAESGKVFALQPLDHEELELLQFQVSARDAGVPALGSNVTLQVFVLDEND | – | – | 2
5 | Pcdh α4 EC1–4 (mouse clustered protocadherin α4, extracellular cadherin domains 1–4) (domain or fragment, N- and O-linked glycans; O-mannose on T409, S411 and S413 (EC4)) QIHYSIPEEAKHGTFVGRIAQDLGLELTELVPRLFRVASKDRGDLLEVNLQNGILFVNSRIDREELCGRSAECSIHLEVIVDRPLQVFHVEVEVRDINDNPPRFPTTQKNLFIAESRPLDTWFPLEGASDADIGINAVLTYRLSPNDYFSLEKPSNDERVKGLGLVLRKSLDREETPEIILVLTVTDGGKPELTGSVQLLITVLDANDNAPVFDRSLYTVKLPENVPNGTLVVKVNASDLDEGVNGDIMYSFSTDISPNVKYKFHIDPVSGEIIVKGYIDFEECKSYEILIEGIDKGQLPLSGHCKVIVQVEDINDNVPELEFKSLSLPIRENSPVGTVIALISVSDRDTGVNGQVTCSLTSHVPFKLVSTFKNYYSLVLDSALDRETTADYKVVVTARDGGSPSLWATASVSVEVADVND | – | 0.037 ± 0.0082 µM | 2
